In US20200317768A1 (published 2020):

Assays:
Experiment in all cases: SPR (BIACORE), antibody captured, FcγR as analyte, 25°C
[1] = target: T1, cynomolgus monkey FcγRIIb extracellular domain, His-tagged (cynomolgus monkey)
T1 construct: also called cyno FcgRIIb; cynoFcγRIIb; not shown: His-tag added to the C-terminus
T1 chain: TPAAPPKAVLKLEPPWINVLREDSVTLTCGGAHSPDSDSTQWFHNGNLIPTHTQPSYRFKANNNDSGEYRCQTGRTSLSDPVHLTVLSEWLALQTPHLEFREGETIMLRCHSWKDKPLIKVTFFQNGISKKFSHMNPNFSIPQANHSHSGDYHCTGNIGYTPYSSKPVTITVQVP
Experimental: (§1) The kinetic analysis of interactions between these antibodies and FcγR was carried out using BIACORE® T200 or BIACORE® 4000 (GE Healthcare). HBS-EP+ (GE Healthcare) was used as the running buffer, and the measurement temperature was set to 25° C. A chip produced by immobilizing Protein A. Protein A/G or mouse anti-human IgG kappa light chain (BD Biosciences) onto a Series S Sensor Chip CM4 or CM5 (GE Healthcare) by the amine-coupling method was used. […] After the measurement, the antibody captured on the chip was washed off by allowing reaction with 10 mM glycine-HCl, pH1.5 and 25 mM NaOH so that the chip was regenerated and used repeatedly. The sensorgrams obtained as measurement results were analyzed by the 1:1 Langmuir binding model using the BIACORE® Evaluation Software to calculate the binding rate constant ka (L/mol/s) and dissociation rate constant kd (l/s), and the dissociation constant KD (mol/L) was calculated from these values. […] Regarding such interactions, KD values were calculated using the following 1:1 binding model described in BIACORE® T100 Software Handbook BR1006-48 Edition AE.
(§2) The behavior of interacting molecules according to the 1:1 binding model on BIACORE® can be described by Equation 1: Req=C·R max/(KD+C)+RI, wherein, Req is a plot of steady-state binding levels to analyte concentration. C is concentration, RI is bulk refractive index contribution in the sample, and Rmax is analyte binding capacity of the surface. When this equation is rearranged, KD can be expressed as Equation 2: KD=C·Rmax/(Req−RI)−C. KD can be calculated by substituting the values of Rmax, RI, and C into Equation 1 or Equation 2. From the current measurement conditions, RI=0, C=2 μmol/L can be used.

[2] = target: T2, cynomolgus monkey FcγRIIa3 extracellular domain, His-tagged (cynomolgus monkey)
T2 construct: also called cyno FcgRIIa3; cynoFcγRIIa3; not shown: His-tag added to the C-terminus
T2 chain: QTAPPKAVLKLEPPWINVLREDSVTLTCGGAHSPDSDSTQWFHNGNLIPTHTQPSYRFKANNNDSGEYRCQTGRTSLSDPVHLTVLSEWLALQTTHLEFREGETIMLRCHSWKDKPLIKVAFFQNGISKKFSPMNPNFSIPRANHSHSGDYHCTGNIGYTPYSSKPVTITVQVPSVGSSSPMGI
Experimental: as §1, §2

[3] = target: T3, human FcγRIIb extracellular domain, His-tagged (human, UniProt P31994 43-217)
T3 construct: also called human FcgRIIb; not shown: His-tag added to the C-terminus
T3 sequence: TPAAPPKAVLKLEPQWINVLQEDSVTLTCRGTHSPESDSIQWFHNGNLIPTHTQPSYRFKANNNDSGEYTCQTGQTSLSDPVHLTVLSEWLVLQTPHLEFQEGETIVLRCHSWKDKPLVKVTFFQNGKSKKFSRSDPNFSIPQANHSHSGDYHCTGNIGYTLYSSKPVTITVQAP
Experimental: as §1, §2

[4] = target: T4, cynomolgus monkey FcγRIIIaS extracellular domain, His-tagged (cynomolgus monkey, UniProt A3RFZ7 21-206 (rhesus entry))
T4 construct: also called cyno FcgRIIIaS; cynoFcγRIIIaS; not shown: His-tag added to the C-terminus
Experimental: as §1, §2

[5] = target: T5, human FcγRIIaH extracellular domain, His-tagged (human, UniProt P12318 34-217)
T5 construct: also called human FcgRIIaH; FcγRIIa (type H); not shown: His-tag added to the C-terminus
T5 sequence: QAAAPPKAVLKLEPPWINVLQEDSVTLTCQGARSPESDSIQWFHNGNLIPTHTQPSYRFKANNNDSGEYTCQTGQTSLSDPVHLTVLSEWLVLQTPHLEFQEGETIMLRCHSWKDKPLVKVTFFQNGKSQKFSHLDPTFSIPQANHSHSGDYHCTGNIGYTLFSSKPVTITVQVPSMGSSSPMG
Experimental: as §1, §2

[6] = target: T6, cynomolgus monkey FcγRIIa2 extracellular domain, His-tagged (cynomolgus monkey)
T6 construct: also called cyno FcgRIIa2; cynoFcγRIIa2; not shown: His-tag added to the C-terminus
T6 chain: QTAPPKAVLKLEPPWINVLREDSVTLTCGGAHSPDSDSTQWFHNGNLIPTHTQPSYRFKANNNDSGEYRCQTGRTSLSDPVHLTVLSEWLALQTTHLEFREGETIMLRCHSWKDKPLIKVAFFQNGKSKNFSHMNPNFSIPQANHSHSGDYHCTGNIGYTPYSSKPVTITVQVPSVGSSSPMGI
Experimental: as §1, §2

T4 sequence (A3RFZ7 21-206): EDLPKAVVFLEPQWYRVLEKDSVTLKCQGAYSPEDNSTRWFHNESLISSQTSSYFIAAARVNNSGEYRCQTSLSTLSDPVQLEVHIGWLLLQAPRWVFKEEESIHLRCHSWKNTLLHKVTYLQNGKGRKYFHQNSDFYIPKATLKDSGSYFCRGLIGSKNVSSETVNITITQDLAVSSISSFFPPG

B1: M103205H795-MY267/M103202L889-SK1 (antibody, human IgG1, kappa)
heavy: QVTLKESGPVLVKPTETLTLTCTVSGIDLSHDDISWVRQAPGKGLEWVGIISYAGSTYYASWAKGRLTISKDTSKNQVVLTMTNMDPVDTATYYCARGVPAYSHGGDLWGQGTLVTVSSASTKGPSVFPLAPSSKSTSGGTAALGCLVKDYFPEPVTVSWNSGALTSGVHTFPAVLQSSGLYSLSSVVTVPSSSLGTQTYICNVNHKPSNTKVDKKVEPKSCDKTHTCPPCPAPELLIGPSVFLFPPKPKDTLMISRTPEVTCVVVDVSDEDPEVKFNWYVDGVEVHNAKTKPREEQYNSTYRVVSVLTVLHQDWLNGKEYKCKVSNKALPKPIEKTISKAKGQPREPQVYTLPPSREEMTKNQVSLTCLVKGFYPSDIAVEWESNGQPENNYKTTPPVLDSDGSFFLYSKLTVDKSRWQQGNVFSCSVMHEALHNHYTQKSLSLSP
light: DIVMTQSPATLSLSPGERATLSCTSSQSVYHANWLSWFQQKPGQPPKLLIYWASTLAYGVPSRFSGSGSGTDFTLTISSLQPEDAATYYCAGGYGGGRYAFGQGTKVEIKRTVAAPSVFIFPPSDEQLKSGTASVVCLLNNFYPREAKVQWKVDNALQSGNSQESVTEQDSKDSTYSLSSTLTLSKADYEKHKVYACEVTHQGLSSPVTKSFNRGEC
notes: copies: 2 + 2
For B1, the Kd [1] was 0.84 µM, the Kd [2] was 7.3 µM and the Kd [3] was 5.7 µM. For the same binder, the Kd [4] was 2.7 µM, the Kd [5] was 0.2 µM and the Kd [6] was 20 µM.
